Results reported in article PMC4752478, “Probing the Catalytic Mechanism of Vibrio harveyi GH20 β-N-Acetylglucosaminidase by Chemical Rescue” (PLoS ONE, 2016).
Where a name gives a salt, the structure may show the parent alone.

How the values were obtained:
VhGlcNAcase = target: T1, VhGlcNAcase (Vibrio harveyi, UniProt D9ISE0); test: biochemical; settings: read-out: Specific activity (nmol/min/μg) / 1 M HCOONa
T1 sequence (D9ISE0 1-642): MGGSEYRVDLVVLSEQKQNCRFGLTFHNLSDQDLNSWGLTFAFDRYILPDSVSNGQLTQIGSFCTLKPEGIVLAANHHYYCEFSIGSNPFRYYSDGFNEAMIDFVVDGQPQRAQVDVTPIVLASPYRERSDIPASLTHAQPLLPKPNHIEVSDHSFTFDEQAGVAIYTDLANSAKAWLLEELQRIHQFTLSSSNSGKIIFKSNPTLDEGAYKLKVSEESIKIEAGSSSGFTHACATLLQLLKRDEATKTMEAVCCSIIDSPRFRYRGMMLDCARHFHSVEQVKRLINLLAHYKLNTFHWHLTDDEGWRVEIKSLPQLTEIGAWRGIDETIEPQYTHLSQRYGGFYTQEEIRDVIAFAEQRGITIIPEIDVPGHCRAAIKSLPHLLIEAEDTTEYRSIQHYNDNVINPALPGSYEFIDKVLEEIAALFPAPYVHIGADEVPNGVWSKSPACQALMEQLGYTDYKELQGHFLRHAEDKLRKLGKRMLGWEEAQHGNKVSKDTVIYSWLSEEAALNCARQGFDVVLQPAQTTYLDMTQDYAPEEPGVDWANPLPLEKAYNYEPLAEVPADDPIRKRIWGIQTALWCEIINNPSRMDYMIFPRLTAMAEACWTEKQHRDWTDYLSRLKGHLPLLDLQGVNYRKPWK

[1] = tested on: CC(=O)N[C@H]1[C@H](Oc2ccc([N+](=O)[O-])cc2)O[C@H](CO)[C@@H](O)[C@@H]1O; test: purified protein; settings: no sodium formate, 100 mM sodium phosphate pH 7.0, 37°C

## O=CO [sodium formate]
VhGlcNAcase
  activity at 1 M: 80%

## VhGlcNAcase (Vibrio harveyi; D437A)
[1]
  Km: 390 ± 32 µM
  kcat: 0.14 ± 0.01 s⁻¹
  kcat/Km: 360 M⁻¹ s⁻¹
